Test results published in patent publication US12517114B2, “Primary gastrointestinal stromal tumor cell culture medium, culture method and application thereof” (PRECEDO PHARMACEUTICALS CO., LTD, priority 2021, dated 2026).

System: primary gastrointestinal stromal tumor cells (GIST-1, GIST-2, GIST-3, GIST-4)
Test: Screening of factors added to the culture medium: cell count after 14 days of culture
Type: cell-based, human
Settings: for Level of promoting cell proliferation: additive at the concentration of Table 1 in basic medium vs basic medium, 14 days, 2% oxygen, Collagen I coated plate, four patient samples
Experimental: Rat tail collagen type I (Collagen type I, manufactured by Corning Inc.) was diluted with ultrapure water in a ratio of 1:50 to prepare a collagen diluent. The collagen diluent was added 500 μl/well into a 24-well culture plate to completely cover the bottom of the culture plate wells. After standing in a incubator at 37° C. for 1 hour, the collagen diluent was removed to provide a culture plate coated with collagen.
First, a basic medium was prepared. To a commercial DMEM/F-12 medium, GlutaMAX-I (manufactured by Thermo Fisher […]) was added at a dilution ratio of 1:100, insulin-containing culture additive Insulin-Transferrin-Selenium-Ethanolamine (ITS-X, manufactured by Gibco) was added at a dilution ratio of 1:100, a ROCK kinase inhibitor Y27632 (manufactured by Sigma) was added at a final concentration of 10 µM, and commercial Primocin solution (manufactured by InvivoGen) (commercial product in concentration of 50 mg/ml) was added at a dilution ratio of 1:500, to obtain the basic medium.
Next, different types of additives (Table 1) were added to the basic medium to prepare culture mediums for gastrointestinal stromal tumor cells containing different components. The culture mediums with different components were added at a volume of 500 μl/well to 24-well plates coated with Collagen I, with 3 wells for per medium formulation. The GIST cells (GIST-1) isolated from GIST tissues in Section (1) of this example were inoculated in the 24-well culture plate coated with Collagen I at a cell density of 3×10^4/well, and were cultured under different medium formulations at 37° C., under 5% CO2 concentration and 2% oxygen concentration. The mediums were renewed every 3 days after the start of the culture. After 14 days of culture, cell counts were performed.
The tumor cells isolated from the other three gastrointestinal stromal tumor tissue samples were also cultured and counted in the same manner as above.

Molecule | Level of promoting cell proliferation | Effect on proliferation of primary gastrointestinal stromal tumor cells (in words) (additive in basic medium, in at least three cases)
fibroblast growth factor 10: receptor tyrosine kinase ligand, medium additive (R&D) (protein, UniProt O15520 38-208, looked up) Fibroblast growth factor 10: QALGQDMVSPEATNSSSSSFSSPSSAGRHVRSYNHLQGDVRWRKLFSFTKYFLKIEKNGKVSGTKKENCPYSILEITSVEIGVVAVKAINSNYYLAMNKKGKLYGSKEFNNDCKLKERIEENGYNTYASFNWQHNGRQMYVALNGKGAPRRGQKTRRKNTSAHFLPMVVHS | + | promote the proliferation
platelet-derived growth factor BB: receptor tyrosine kinase ligand, medium additive (R&D) (protein, UniProt P01127 82-190, looked up) Platelet-derived growth …: SLGSLTIAEPAMIAECKTRTEVFEISRRLIDRTNANFLVWPPCVEVQRCSGCCNNRNVQCRPTQVQLRPVQVRKIEIVRKKPIFKKATVTLEDHLACKCETVAAARPVT | + | –
